# Results from IntAct's records for PubMed 9312003.
# B1: ADP-ribosylation factor 6 (Homo sapiens), P62330 (parent)
# chain: MGKVLSKIFGNKEMRILMLGLDAAGKTTILYKLKLGQSVTTIPTVGFNVETVTYKNVKFNVWDVGGQDKIRPLWRHYYTGTQGLIFVVDCADRDRIDEARQELHRIINDREMRDAIILIFANKQDLPDAMKPHEIQEKLGLTRIRDRNWYVQPSCATSGDGLYEGLTWLTSNYKS
# partner: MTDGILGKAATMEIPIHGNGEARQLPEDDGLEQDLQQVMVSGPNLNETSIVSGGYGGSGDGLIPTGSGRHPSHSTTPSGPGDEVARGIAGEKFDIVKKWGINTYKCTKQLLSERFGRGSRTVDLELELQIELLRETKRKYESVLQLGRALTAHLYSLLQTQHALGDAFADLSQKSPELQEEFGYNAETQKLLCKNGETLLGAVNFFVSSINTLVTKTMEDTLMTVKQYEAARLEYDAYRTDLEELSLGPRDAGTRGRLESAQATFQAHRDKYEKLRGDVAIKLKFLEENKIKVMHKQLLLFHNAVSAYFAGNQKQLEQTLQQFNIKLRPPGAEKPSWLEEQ
# Variants of: B1
# Conditions: with arfp2_human ARFIP2, P53365
row,Variant,effect of a mutation on the interaction
1,T28N,decreasing interaction
